Assay results reported in article PMC5066248.

Target: His6-GroEL
Experiment: cryo-EM structure; His6-GroEL captured from clarified E. coli lysate on Ni2+-activated BSA-PABA-GO-NTA coated lacey carbon 400 mesh grids; single particle analysis of 5363 particles in EMAN 2.1 with imposed D7 symmetry; 8.1 Å (gold standard, 0.143 criteria)

Sequence of His6-GroEL (A1AJ51 2-548): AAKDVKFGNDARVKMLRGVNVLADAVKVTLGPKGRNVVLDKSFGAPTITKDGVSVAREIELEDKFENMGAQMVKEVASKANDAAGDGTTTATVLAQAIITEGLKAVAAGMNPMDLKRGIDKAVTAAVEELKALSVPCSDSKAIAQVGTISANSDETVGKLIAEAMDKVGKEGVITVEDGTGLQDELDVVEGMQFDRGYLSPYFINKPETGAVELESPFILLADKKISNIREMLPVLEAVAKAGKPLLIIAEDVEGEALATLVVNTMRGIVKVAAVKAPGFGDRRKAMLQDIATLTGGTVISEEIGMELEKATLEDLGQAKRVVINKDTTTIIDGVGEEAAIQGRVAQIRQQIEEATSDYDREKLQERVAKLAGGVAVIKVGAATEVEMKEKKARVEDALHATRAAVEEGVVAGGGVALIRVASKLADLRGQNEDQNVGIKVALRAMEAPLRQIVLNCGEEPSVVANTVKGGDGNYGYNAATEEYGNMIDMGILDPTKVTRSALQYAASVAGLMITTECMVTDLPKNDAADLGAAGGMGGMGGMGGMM

stoichiometry N: 14
Substance: His6-GroEL (natural protein)
